{
  "source": "IntAct's records for PubMed 16488394",
  "parents": {"B1": {"name": "Actin nucleation-promoting factor WAS (Homo sapiens), P42768 (parent)", "chain": "MSGGPMGGRPGGRGAPAVQQNIPSTLLQDHENQRLFEMLGRKCLTLATAVVQLYLALPPGAEHWTKEHCGAVCFVKDNPQKSYFIRLYGLQAGRLLWEQELYSQLVYSTPTPFFHTFAGDDCQAGLNFADEDEAQAFRALVQEKIQKRNQRQSGDRRQLPPPPTPANEERRGGLPPLPLHPGGDQGGPPVGPLSLGLATVDIQNPDITSSRYRGLPAPGPSPADKKRSGKKKISKADIGAPSGFKHVSHVGWDPQNGFDVNNLDPDLRSLFSRAGISEAQLTDAETSKLIYDFIEDQGGLEAVRQEMRRQEPLPPPPPPSRGGNQLPRPPIVGGNKGRSGPLPPVPLGIAPPPPTPRGPPPPGRGGPPPPPPPATGRSGPLPPPPPGAGGPPMPPPPPPPPPPPSSGNGPAPPPLPPALVPAGGLAPGGGRGALLDQIRQGIQLNKTPGAPESSALQPPPQSSEGLVGALMHVMQKRSRAIHSSDEGEDQAGDEDEDDEWDD"}},
  "data": [
    {"variants_of": "B1", "settings": "with wipf1_human WIPF1, O43516", "values": [
      {"variant": "MSGGPMGGRPGGRGAPAVQQNIPSTLLQDHENQRLFEMLGRKCLTLATAVVQLYLALPPGAEHWTKEHCGAVCFVKDNPQKSYFIRLYGLQAGRLLWEQELYSQLVYSTPTPFFHTFAGDDCQAGLNFADEDETQAFRALVQEKIQKRNQRQSGDRRQLPPPPTPANEERRGGLPPLPLHPGGDQGGPPVGPLSLGLATVDIQNPDITSSRYRGLPAPGPSPADKKRSGKKKISKADIGAPSGFKHVSHVGWDPQNGFDVNNLDPDLRSLFSRAGISEAQLTDAETSKLIYDFIEDQGGLEAVRQEMRRQEPLPPPPPPSRGGNQLPRPPIVGGNKGRSGPLPPVPLGIAPPPPTPRGPPPPGRGGPPPPPPPATGRSGPLPPPPPGAGGPPMPPPPPPPPPPPSSGNGPAPPPLPPALVPAGGLAPGGGRGALLDQIRQGIQLNKTPGAPESSALQPPPQSSEGLVGALMHVMQKRSRAIHSSDEGEDQAGDEDEDDEWDD", "note": "[A134T]", "effect of a mutation on the interaction": "decreasing interaction"}
    ]}
  ]
}
